Experimental data reported in patent US11673916B2, “Neuroprotective peptides and methods of their use” (University of Pittsburgh—Of the Commonwealth System of …, priority 2020, dated 2023).

Key:
[1] = biological target: T1, VAPA (Rattus norvegicus, UniProt Q9Z270); experiment: Peptide spot array (far western) of binding to VAPA, cell-free; details: lysate of VAPA-transfected HEK293 cells (FIG. 11A)
T1 construct: pEGFP-N1-VAPA; 1-242 (Addgene #18874); host or cells: HEK293 cells; whole lysate at 1 mg/ml total protein overlaid on the peptide arrays
T1 sequence (Q9Z270 8-249): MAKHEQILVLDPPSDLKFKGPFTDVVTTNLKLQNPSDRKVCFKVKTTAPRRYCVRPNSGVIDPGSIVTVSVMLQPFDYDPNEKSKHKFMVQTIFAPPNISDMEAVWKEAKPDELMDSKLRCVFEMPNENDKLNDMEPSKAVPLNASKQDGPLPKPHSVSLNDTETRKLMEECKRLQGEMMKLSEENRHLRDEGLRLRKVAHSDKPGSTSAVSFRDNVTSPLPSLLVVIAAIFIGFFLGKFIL
Protocol: Standard 9-fluorenylmethoxy carbonyl chemistry was used to synthesize peptides and spot them onto Celluspots nitrocellulose disks prederivatized with a polyethylene glycerol spacer (Intavis), using the Respep peptide synthesizer. The peptides were spotted on 20 membranes fitted on microscope glass slides (Intavis) using an Intavis MultiPep robot. For hybridization and immunoblotting of arrays, Celluspots slides were washed in TBST (50 mM Tris-HCl, pH 7.4, 150 mM NaCl, 0.1% Tween 20) for 10 minutes, […] blocked for 1 hour at room temperature (RT) with gentle shaking in TBST containing 5% nonfat dry milk. Lysates from HEK293 cells transfected as before (Yeh et al., J Neurosci. 37: 5648-5658, 2017; Yeh et al., Proc Natl Acad Sci USA. 116: 15696-15607, 2019; Dustrude et al., Proc Natl Acad Sci USA. 113: E8443-E8452, 2016) with pEGFP-N1-VAPA; 1-242 (Addgene #18874) were made in 20 mM Tris, 50 mM NaCl, 2 mM MgCl2, 1% Tergitol, 0.5% sodium deoxycholate, 0.1% sodium dodecyl sulfate with protease (Cat #B14002, Bimake), phosphatase (Cat #B15002, Bimake) inhibitor cocktails and 5 U/ml of universal nuclease (Cat #88702, Thermofisher) added extemporaneously. The concentration of lysates was measured by BCA (Cat #23227, Thermofisher) and peptide arrays were incubated with 1 mg/ml of total protein overnight at 4° C. (Yeh et al., J Neurosci. 37: 5648-5658, 2017; Yeh et al., Proc Natl Acad Sci USA. 116: 15696-15607, 2019; Moutal et al., Pain. 158: 2203-2221, 2017). Peptide arrays were washed 3 times for 5 minutes at RT with TBST and incubated with the primary antibody anti-VAPA (RRID AB_2722707; UC Davis/NIH NeuroMab Facility) for 2 hours at RT with gentle shaking in TBST, 5% BSA. After washing with TBST, the membranes were incubated in secondary antibody (IRDye® 800CW goat anti-mouse IgG secondary antibody; RRID AB_621842; Li-Cor) for 45 minutes, washed 3 times for 5 minutes in TBST, and visualized by infrared fluorescence (Li-Cor). Four independent peptide spot arrays were used in this study. Fluorescence intensity was analyzed with Image studio (Li-Cor).
Kv2.1 and Kv2.2 channels are recruited to ER-PM junctions via C-terminal PRC-mediated interaction with vesicle-associated membrane protein (VAMP)-associated protein A/B (VAPA/B) (Kirmiz, et al., J Neurosci. 38: 7562-7584, 2018; Johnson et al., Proc Natl Acad Sci USA. 115: E7331-E7340, 2018; Johnson, et al., Channels (Austin). 13: 88-101, 2019). This process occurs at non-canonical FFAT binding motifs within the PRC domains of Kv2.1 and Kv2.2 (FIG. 7B), which are recruited to the FFAT binding domain on VAPA/B (Kirmiz, et al., J Neurosci. 38: 7562-7584, 2018; Johnson et al., Proc Natl Acad Sci USA. 115: E7331-E7340, 2018; Johnson, et al., Channels (Austin). 13: 88-101, 2019). […]

[2] = biological target: T2, Kv2.1 surface clusters (Rattus norvegicus, UniProt P15387); experiment: Kv2.1 surface cluster density in live Kv2.1-GFP-transfected cortical neurons treated with TAT-linked peptides; type: cell-based; details: 10 μM
T2 construct: expressed in transfected cells; host or cells: primary rat cortical neurons (E16-17 Sprague-Dawley), Lipofectamine 2000
T2 sequence (P15387 1-857): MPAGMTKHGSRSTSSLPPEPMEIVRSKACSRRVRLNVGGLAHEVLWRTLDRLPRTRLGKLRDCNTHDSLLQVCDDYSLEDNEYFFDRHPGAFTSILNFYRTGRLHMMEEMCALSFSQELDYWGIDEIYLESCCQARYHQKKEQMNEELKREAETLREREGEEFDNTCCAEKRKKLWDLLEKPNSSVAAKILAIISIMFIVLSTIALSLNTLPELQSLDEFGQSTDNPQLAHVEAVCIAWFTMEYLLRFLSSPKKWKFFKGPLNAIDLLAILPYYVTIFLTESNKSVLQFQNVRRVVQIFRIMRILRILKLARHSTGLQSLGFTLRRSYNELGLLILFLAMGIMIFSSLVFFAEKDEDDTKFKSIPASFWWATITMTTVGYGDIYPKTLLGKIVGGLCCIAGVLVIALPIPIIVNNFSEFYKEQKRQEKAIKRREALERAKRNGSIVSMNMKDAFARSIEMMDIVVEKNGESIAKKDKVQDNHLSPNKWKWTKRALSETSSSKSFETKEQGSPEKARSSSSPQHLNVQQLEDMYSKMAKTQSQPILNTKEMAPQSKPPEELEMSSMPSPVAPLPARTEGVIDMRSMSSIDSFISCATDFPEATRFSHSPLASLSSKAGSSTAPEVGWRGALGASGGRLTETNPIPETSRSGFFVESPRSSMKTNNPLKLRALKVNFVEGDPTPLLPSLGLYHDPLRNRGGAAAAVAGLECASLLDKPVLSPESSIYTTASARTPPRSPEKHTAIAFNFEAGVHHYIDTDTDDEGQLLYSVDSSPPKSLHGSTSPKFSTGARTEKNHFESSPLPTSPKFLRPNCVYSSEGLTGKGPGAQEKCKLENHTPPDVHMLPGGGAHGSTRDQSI
Protocol: In vitro experiments utilized primary cortical neuronal cultures prepared from embryonic day 16-17 Sprague-Dawley rats of either sex in a protocol described previously (McCord et al., J Physiol (Lond). 592: 3511-3521, 2014). Timed-pregnant rats (Charles River Laboratories, Wilmington, Mass.) were sacrificed by CO2 inhalation. Embryonic cortices were dissociated with trypsin (0.6 mg/mL) and cells plated in sterile 6-well plates on poly-L-ornithine-coated glass coverslips at a density of 670,000 cells per well. Cytosine arabinoside (1-2 μM) was utilized to inhibit non-neuronal proliferation on day 14 in vitro (DIV); cultures were utilized at 21-25 DIV.
; Invitrogen, Carlsbad, Calif.). […]; Thermo Fisher Scientific, Waltham, Mass.). […]. Cultures were utilized 18-24 hours following transfection. cDNA amounts for each transfection experiment are described below for each figure. FIG. 1: 0.375 μg/well Kv2.1-GFP plasmid, 0.495 μg/well pcDNA3 vector plasmid, and 0.63 μg/well of either DP-1 or Sc-1, or Kv2.2 CT-expressing plasmid. FIGS. 2, 8, 9, 10, 12: 0.375 μg/well Kv2.1-GFP plasmid, 0.15 μg/well tdTomato plasmid (from Gerhart Ryffel; Addgene plasmid #30530), and 0.975 μg/well pcDNA3 vector plasmid.
To analyze Kv2.1 distribution in live primary cortical neurons, cells were transfected with both a tdTomato construct and a GFP-tagged Kv2.1 construct (O'Connell, et al., J Neurosci. 26: 9609-9618, 2006) and imaged on a Nikon A1+ confocal microscope (Nikon, Tokyo, Japan). Cells were chosen at random by looking only at the tdTomato signal (561 nm), in order to avoid bias. At least three separate culture dates were used per experiment and three coverslips were transfected per condition each time. For these experiments, “n” refers to the total number of cells imaged. Five to 15 optical sections (0.5 μm) capturing the cell surface were obtained of single cells at 60× magnification (Schulien et al., J Physiol (Lond). 594: 2647-2659, 2016), creating a maximum-intensity projection (MAX-IP) of Kv2.1-GFP distribution. To analyze Kv2.1 distribution in the cerebral cortex of fixed brain slices, 51-54 image fields were obtained at 60× magnification across 18 sections from three fixed mouse brains per treatment (total of 6 animals). Image fields were captured by first focusing on an area of superficial cortex closest to the cover glass. Next, 24 optical sections (0.5 μm) were obtained moving deeper into the tissue in order to produce a 12 μm maximum-intensity projection for analysis of Kv2.1 distribution. Laser power, HV (gain), offset, pinhole size, and all camera parameters were kept identical between all samples in a given experiment. Nikon Instruments Software Advanced Research (NIS-Elements AR) was utilized to analyze GFP-tagged Kv2.1 channel cluster distribution. For live images of transfected neurons, object count parameters were customized to define a Kv2.1 cluster as an area of high intensity GFP fluorescence (compared to background), measuring 0.05 μm^2 or larger (Schulien et al., J Physiol (Lond). 594: 2647-2659, 2016). Kv2.1 cluster density was calculated by normalizing the number of Kv2.1 clusters counted to the somatic area of each neuron (#Kv2.1 clusters/μm^2). Due to high variability in GFP-Kv2.1 expression between individual neurons, intensity thresholding required cell-specific local-background subtraction. In each neuron analyzed, two populations on Kv2.1-GFP expression were first noted—(a) highly localized signals of clustered Kv2.1 channels, and (b) diffuse background staining that represents freely-dispersed, conducting Kv2.1 channels on the plasma membrane. A small region of interest (ROI) within region (b) was set as the background subtraction standard of the image, creating an optimal signal-to-noise ratio for clustered Kv2.1 channels. […]

[3] = 2 hour treatment, mean±SEM (FIG. 11B)
[4] = 24 hour treatment, mean±SEM (FIG. 11C)

| Substance | binding to VAPA in peptide spot array [1] | mean Kv2.1 surface cluster density [2, 3] | mean Kv2.1 surface cluster density [2, 4] |
| --- | --- | --- | --- |
| SFTSCAT [non-canonical FFAT motif of Kv2.2] | no binding |  |  |
| SFISCAT [non-canonical FFAT motif of Kv2.1] | no binding |  |  |
| YGRKKRRQRRRDEEFAP [TAT-FFATSc, scramble control peptide of TAT-FFAT] |  | 0.14±0.02 #Kv2.1 clusters/μm^2 of neuronal soma | 0.20±0.01 #Kv2.1 clusters/μm^2 of neuronal soma |
| SIDSFTS [DP-2, seven amino acid declustering peptide from Kv2.2 CT] | no binding |  |  |
| YGRKKRRQRRREFFDAPE [TAT-FFAT, TAT-linked derivative of the canonical FFAT motif] |  | 0.15±0.03 #Kv2.1 clusters/μm^2 of neuronal soma | 0.19±0.02 #Kv2.1 clusters/μm^2 of neuronal soma |
| EFFDAPE [positive control peptide, a canonical FFAT motif] | strong VAPA binding |  |  |
